Entries after “also recorded” stand apart in the source; their conditions may differ. Where no end group is shown, it is not given here.
Experiments:
Streptavidin [1] = target: T1, Streptavidin (Streptomyces avidinii, UniProt P22629); experiment: Recombinant peptide chip screen with HRP- or Europium-labeled Streptavidin; format: binding; conditions: for effect of dimerisation on chip signal/affinity: 12 glycine linker spaced dimer versus monomer, HRP-Streptavidin signal
T1 construct: purchased ForteBio
T1 sequence (P22629 25-183): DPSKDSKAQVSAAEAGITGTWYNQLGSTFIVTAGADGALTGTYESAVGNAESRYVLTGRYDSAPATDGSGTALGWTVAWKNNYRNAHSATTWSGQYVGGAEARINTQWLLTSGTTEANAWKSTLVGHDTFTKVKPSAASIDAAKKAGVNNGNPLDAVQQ
Method: Competent E. coli One Shot® BL21 Star™ (DE3) cells (Thermo Fisher Scientific) carrying the gene for T7 RNA polymerase under control of isopropyl β-D-1-thiogalactopyranoside (IPTG)-inducible lacUV5 promotor were transformed with respective expression libraries, and plated onto large square Q-trays. Individual colonies were robotically picked (QPix2^xt, Genetix) into suitable 384 well plates containing liquid LB medium supplemented with 100 μg/ml ampicillin, and cultivated overnight at 37 °C. Alternative route was to directly split appropriately diluted (as confirmed by plating onto LB-amp agar plates) transformation reactions (after 1 h recovery in antibiotics-free SOC medium) into 384 well plates via a programmable Flexdrop Precision Reagent Dispenser (Perkin Elmer). The next day, clones were robotically arrayed onto a 0.45 μm pore size PROTRAN™ nitrocellulose sheet (Whatman) cut in the form of the original masterplate, applying a 1 × 1, 5 × 1, 5 × 5, or 10 × 10 pattern (such that each clone or pool is gridded in 1, 5 or 25 or 100 replicates each). Following a 6 to 8 h incubation interval on top of solid LB at 30 °C, peptide expression was achieved by transferring these membrane-imprinted clones onto LB agar plates supplemented with 1 mM IPTG, followed by a 2 h incubation interval at 37 °C. Cells were then directly lysed via transfer into a Tris-buffered saline (TBS) solution containing 0.05% Tween-20 and 3% blotting-grade milk powder. Membranes were in refined dot-blot reminiscent procedure challenged with (horseradish peroxidase) HRP- or Europium labeled Streptavidin (in 1:1000 to 1:5000 dilution in TBS-0.05% Tween) for 1 h at RT, washed 3 times in TBS-0.05% Tween, and scanned with either a ChemiDoc imaging system (Quantity One® analysis software, BioRad) after exposure to Immobilon™ Western chemiluminescent substrate (Millipore, Merck), or directly with a prototypic SpectraMax® Paradigm® multi-mode detection Platform (ScanLater™ Western Blot Detection Cartridge, Molecular Devices).
Screening parameters were first of all optimized: signal-to-background ratios and realizable detection limits were assessed by analyzing the associations between published Strep-tagI and II peptides (as well as 12G linker spaced dimer derived thereof) and either commercially available HRP- or fluorescence labeled Streptavidin. […] We next further optimized E. coli growth times (from 0 to 24 h at 2 different temperatures), induction intervals, critical cell densities required, printing conditions, lysis and detection conditions, etc. (Fig. 2).

Streptavidin [2] = target: T1, Streptavidin; set-up: method as in 4 sources, one per row (each row's own in cited_ref): ref see discussion section ([26], [33], [34]) ||| ref [35], [36] = [35]; PMID 26406477; doi:10.1371/journal.pone.0139137; 35. Fogen D Engineering Streptavidin and a Streptavidin-Binding Peptide with Infinite Binding Affinity and Reversible Binding Capability: Purification of a Tagged Recombinant Protein to High Purity vi || [36]; PMID 11722181; doi:10.1006/prep.2001.1515; 36. Keefe AD One-step purification of recombinant proteins using a nanomolar-affinity streptavidin-binding peptide, the SBP-Tag Protein Expr Purif 2001 23 3 440 446 10.1006/prep.2001.1515 11722181 ||| ref [37] = [37]; PMID 14680960; doi:10.1016/j.pep.2003.08.014; 37. Lamla T Erdmann VA The Nano-tag, a streptavidin-binding peptide for the purification and detection of recombinant proteins Protein Expr Purif 2004 33 1 39 47 10.1016/j.pep.2003.08.014 14680960 ||| ref [26], [33], [34] = [26]; PMID 8636976; doi:10.1006/jmbi.1996.0061; 26. Schmidt TG Molecular interaction between the Strep-tag affinity peptide and its cognate target, streptavidin J Mol Biol 1996 255 5 753 766 10.1006/jmbi.1996.0061 8636976 || [33]; PMID 10796988; doi:10.1016/S1050-3862(99)00033-9; 33. Skerra A Schmidt TG Applications of a peptide ligand for streptavidin: the Strep-tag Biomol Eng 1999 16 1–4 79 86 10.1016/S1050-3862(99)00033-9 10796988 || [34]; PMID 11910031; doi:10.1110/ps.4150102; 34. Korndorfer IP Skerra A Improved affinity of engineered streptavidin for the Strep-tag II peptide is due to a fixed open conformation of the lid-like loop at the binding site Protein Sci 2002 11 4; conditions: equilibrium dissociation constant; ref [35], [36]; read-out: literature KD of SBP-tag, Streptavidin; cited from earlier work

| Substance | effect of dimerisation on chip signal/affinity (Streptavidin [1]) | binder strength on test peptide chip (Streptavidin [1]; in comparison to negative control, HRP- or fluorescence-labeled Streptavidin) | Kd (Streptavidin [2]) |
| --- | --- | --- | --- |
| B5 dimer: B5 dimerized, spaced by an analogous 12 glycine linker (VSHPQAPFGGGGGGGGGGGGVSHPQAPF; not fully specified) | could not increase affinity by linear dimerization | – | – |
| Dim12G: 12 glycine (G) linker spaced dimer resembling a published Twin-conformation; fusion of Strep-tagI and Strep-tagII monomers [reference compound] | performs superior in comparison to a single monomer | higher affinity | – |
| F14.5 dimer: 12G–spaced dimeric F14.5 (CSGSYGSCGGGGGGGGGGGGCSGSYGSC; cysteine pairing not given here; also: fused to GST, end not given here) | remained fairly constant; also recorded: could not increase affinity by linear dimerization | – | – |
| SBP-tag: 38 AA encompassing SBP-tag | – | – | 2.5 nM |

From PMC5463365, “Assembly and use of high-density recombinant peptide chips for large-scale ligand screening is a practical alternative to synthetic peptide libraries” (BMC Genomics, 2017)
